{"source": "patent US20240270846A1", "about": "(published 2024)", "binders": {"B1": {"name": "GLS3000 N30E one-arm antibody (H chain CE115HA000) (antibody, human IgG1, kappa, L234A L235A, N297A, name in Kabat numbering)", "heavy": "QVQLVESGGGVVQPGRSLRLSCAASGFTFSNAWMHWVRQAPGKGLEWVAQIKAKSNNYATYYAESVKGRFTISRDDSKNSLYLQMNSLKTEDTAVYYCRYVHYGAYYGVDAWGQGTTVTVSSASTKGPSVFPLAPSSKSTSGGTAALGCLVKDYFPEPVTVSWNSGALTSGVHTFPAVLQSSGLYSLSSVVTVPSSSLGTQTYICNVNHKPSNTKVDKKVEPKSCDKTHTCPPCPAPEAAGGPSVFLFPPKPKDTLMISRTPEVTCVVVDVSHEDPEVKFNWYVDGVEVHNAKTKPREEQYASTYRVVSVLTVLHQDWLNGKEYKCKVSNKALPAPIEKTISKAKGQPREPQVYTLPPSRCELTKNQVSLSCAVKGFYPSDIAVEWESNGQPENNYKTTPPVLDSDGSFFLVSKLTVDKSRWQQGNVFSCSVMHEALHNHYTQKSLSLSPDYKDDDDK", "chain": "EPKSSDKTHTCPPCPAPELLGGPSVFLFPPKPKDTLMISRTPEVTCVVVDVSHEDPEVKFNWYVDGVEVHNAKTKPREEQYNSTYRVVSVLTVLHQDWLNGKEYKCKVSNKALPAPIEKTISKAKGQPREPQVCTLPPSRDELTKNQVSLWCLVKGFYPSDIAVEWESNGQPENNYKTTPPVLDSDGSFFLYSKLTVDKSRWQQGNVFSCSVMHEALHNRYTQKSLSLSP", "light": "DIVMTQSPLSLPVTPGEPASISCRSSQSLVHSNRETYLHWYQQKPGQAPRLLIYKVSNRFSGVPDRFSGSGSGTDFTLKISRVEAEDVGVYYCGQGTQVPYTFGQGTKLEIKRTVAAPSVFIFPPSDEQLKSGTASVVCLLNNFYPREAKVQWKVDNALQSGNSQESVTEQDSKDSTYSLSSTLTLSKADYEKHKVYACEVTHQGLSSPVTKSFNRGEC", "notes": "one-arm antibody"}, "B2": {"name": "GLS3000 N30I one-arm antibody (H chain CE115HA000) (antibody, human IgG1, kappa, L234A L235A, N297A, name in Kabat numbering)", "heavy": "B1 heavy", "chain": "B1 chain", "light": "B1 light with E35I", "notes": "one-arm antibody"}, "B3": {"name": "GLS3000 N30L one-arm antibody (H chain CE115HA000) (antibody, human IgG1, kappa, L234A L235A, N297A, name in Kabat numbering)", "heavy": "B1 heavy", "chain": "B1 chain", "light": "B1 light with E35L", "notes": "one-arm antibody"}, "B4": {"name": "GLS3000 N30P one-arm antibody (H chain CE115HA000) (antibody, human IgG1, kappa, L234A L235A, N297A, name in Kabat numbering)", "heavy": "B1 heavy", "chain": "B1 chain", "light": "B1 light with E35P", "notes": "one-arm antibody"}, "B5": {"name": "GLS3000 N30K one-arm antibody (H chain CE115HA000) (antibody, human IgG1, kappa, L234A L235A, N297A, name in Kabat numbering)", "heavy": "B1 heavy", "chain": "B1 chain", "light": "B1 light with E35K", "notes": "one-arm antibody"}, "B6": {"name": "GLS3000 N30Q one-arm antibody (H chain CE115HA000) (antibody, human IgG1, kappa, L234A L235A, N297A, name in Kabat numbering)", "heavy": "B1 heavy", "chain": "B1 chain", "light": "B1 light with E35Q", "notes": "one-arm antibody"}, "B7": {"name": "GLS3000 N30G one-arm antibody (H chain CE115HA000) (antibody, human IgG1, kappa, L234A L235A, N297A, name in Kabat numbering)", "heavy": "B1 heavy", "chain": "B1 chain", "light": "B1 light with E35G", "notes": "one-arm antibody"}, "B8": {"name": "GLS3000 N30F one-arm antibody (H chain CE115HA000) (antibody, human IgG1, kappa, L234A L235A, N297A, name in Kabat numbering)", "heavy": "B1 heavy", "chain": "B1 chain", "light": "B1 light with E35F", "notes": "one-arm antibody"}, "B9": {"name": "GLS3000 N30M one-arm antibody (H chain CE115HA000) (antibody, human IgG1, kappa, L234A L235A, N297A, name in Kabat numbering)", "heavy": "B1 heavy", "chain": "B1 chain", "light": "B1 light with E35M", "notes": "one-arm antibody"}, "B10": {"name": "GLS3000 N30H one-arm antibody (H chain CE115HA000) (antibody, human IgG1, kappa, L234A L235A, N297A, name in Kabat numbering)", "heavy": "B1 heavy", "chain": "B1 chain", "light": "B1 light with E35H", "notes": "one-arm antibody"}}, "note": "Where a chain is given by its changes, count along the chain named. Names and notes keep the numbering of the source."}
{"molecular_target": "T1, CD3 epsilon homodimer protein (UniProt P07766 23-126)", "T1 construct": "also called CD3 (CD3 epsilon)", "T1 sequence (P07766 23-126)": "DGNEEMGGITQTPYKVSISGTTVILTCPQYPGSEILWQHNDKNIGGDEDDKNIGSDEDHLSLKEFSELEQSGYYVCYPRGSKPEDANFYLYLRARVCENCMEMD", "assay": "SPR, CD3e homodimer on chip;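 note: surface plasmon resonance at 25 degrees C, antibodies flowed as analyte over CD3 epsilon homodimer amine-coupled to a CM4 chip, running buffer HBS-EP+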", "method": "An appropriate amount of CD3 epsilon homodimer protein was immobilized onto Sensor chip CM4 (GE Healthcare Japan Corp.) by the amine coupling method. Then, the antibody having an appropriate concentration was injected thereto as an analyte and allowed to interact with the CD3 epsilon homodimer protein on the sensor chip. Then, the sensor chip was regenerated by the injection of 10 mmol/L glycine-HCl (pH 1.5). The assay was conducted at 25 degrees C., and HBS-EP+(GE Healthcare Japan Corp.) was used as a running buffer. […] Each parameter was calculated using Biacore T200 Evaluation Software (GE Healthcare Japan Corp.).\nSpecifically, when the amount of the GLS3000-containing antibody bound was defined as X and the amount of the L chain one-amino acid altered form bound was defined as Y, a value of Z (ratio of amounts bound)=Y/X was used."}
{"binder": "B1", "ratio of amounts bound (altered form / unaltered GLS3000 antibody)": 0.44}
{"binder": "B2", "ratio of amounts bound (altered form / unaltered GLS3000 antibody)": 0.61}
{"binder": "B3", "ratio of amounts bound (altered form / unaltered GLS3000 antibody)": 0.7}
{"binder": "B4", "ratio of amounts bound (altered form / unaltered GLS3000 antibody)": 0.31}
{"binder": "B5", "ratio of amounts bound (altered form / unaltered GLS3000 antibody)": 1.65}
{"binder": "B6", "ratio of amounts bound (altered form / unaltered GLS3000 antibody)": 0.87}
{"binder": "B7", "ratio of amounts bound (altered form / unaltered GLS3000 antibody)": 0.47}
{"binder": "B8", "ratio of amounts bound (altered form / unaltered GLS3000 antibody)": 1.1}
{"binder": "B9", "ratio of amounts bound (altered form / unaltered GLS3000 antibody)": 0.8}
{"binder": "B10", "ratio of amounts bound (altered form / unaltered GLS3000 antibody)": 0.98}
